# From paper PMC2034485
# Target: Rad18 S471A;Rad6 (hHR6B) (Homo sapiens;Homo sapiens, UniProt Q9NS91;P63146 1-495;1-152, S471A|)
# Assay: EMSA, competition
# Rad18 S471A;Rad6 (hHR6B), sequence (Q9NS91 whole entry S471A, chain 1 of 2): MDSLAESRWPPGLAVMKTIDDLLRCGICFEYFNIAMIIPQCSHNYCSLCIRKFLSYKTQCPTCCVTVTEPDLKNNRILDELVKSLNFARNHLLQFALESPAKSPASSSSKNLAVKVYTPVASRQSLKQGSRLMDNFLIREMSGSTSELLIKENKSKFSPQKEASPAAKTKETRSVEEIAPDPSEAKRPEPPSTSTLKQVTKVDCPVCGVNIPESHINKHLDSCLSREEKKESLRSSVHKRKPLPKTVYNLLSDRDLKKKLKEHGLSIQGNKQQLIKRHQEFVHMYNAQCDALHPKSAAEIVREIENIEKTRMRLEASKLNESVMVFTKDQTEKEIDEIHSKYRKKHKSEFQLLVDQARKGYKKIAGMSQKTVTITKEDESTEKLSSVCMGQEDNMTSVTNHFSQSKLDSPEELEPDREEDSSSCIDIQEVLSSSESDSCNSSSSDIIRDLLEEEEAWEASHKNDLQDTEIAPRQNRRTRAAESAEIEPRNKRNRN
# Rad18 S471A;Rad6 (hHR6B), sequence (P63146 whole entry, chain 2 of 2): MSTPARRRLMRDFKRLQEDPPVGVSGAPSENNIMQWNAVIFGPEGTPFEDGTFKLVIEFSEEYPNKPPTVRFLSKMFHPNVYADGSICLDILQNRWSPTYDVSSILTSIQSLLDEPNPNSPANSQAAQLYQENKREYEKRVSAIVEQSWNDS
binder,measurement,value
TTTTTTTTTTTTTTTTTTTTTTTTTTTTTTTTTTT (ssDNA) [35T],binding result,binds
